T1: His-tagged CX3CR1 (human, UniProt P49238 1-355)
T1 construct: CX3CR1 (fractalkine receptor), human cDNA; Two templates are described; The pET28a plasmid has an N-terminal 6xHis tag, the linker DYDIPTT and a TEV site; The linear PCR product takes its His-tag from the reverse primer, which would be C-terminal; In the nanodisc assay the receptor sat in a lipid nanodisc (MSP scaffold, POPC/POPS/cholesterol); In the micelle assay it was in detergent; also called …
T1 sequence (looked up): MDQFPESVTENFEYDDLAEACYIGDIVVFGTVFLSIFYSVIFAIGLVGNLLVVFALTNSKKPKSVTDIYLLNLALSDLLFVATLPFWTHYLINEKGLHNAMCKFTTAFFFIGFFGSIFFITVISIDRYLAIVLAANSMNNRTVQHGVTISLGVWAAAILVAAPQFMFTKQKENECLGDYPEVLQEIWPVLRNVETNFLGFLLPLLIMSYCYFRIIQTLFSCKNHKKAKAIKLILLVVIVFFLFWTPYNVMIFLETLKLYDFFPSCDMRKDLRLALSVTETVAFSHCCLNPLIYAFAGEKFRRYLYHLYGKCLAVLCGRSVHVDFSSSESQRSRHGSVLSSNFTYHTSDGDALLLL

B1: strep-II-tagged ligand CX3CL1 (ligand, UniProt P78423 25-100, looked up)
chain: QHHGVTKCNITCSKMTSKIPVALLIHYQQNQASCGKRAIILETRQHRLFCADPKEQWVKDAMQHLDRQAAALTRNG
notes: fractalkine (CX3CL1), amplified from pUREstrept2 plasmid; printed size 8.5 kDa; also called fractalkine; CX3CL1-tagged with Strep-tag II; source: PURE system (cell-free), not purified, immobilized directly; not shown: Strep-tag II, N-terminal, kept

Assays:
[1] = biological target: T1, His-tagged CX3CR1; assay: SPR; Biacore T200; unpurified PURE-synthesized His-tagged CX3CR1-nanodisc complex captured (~1500 RU) on Penta-His antibody on CM5 chip; purified CX3CL1 injected; HBS-P (10 mM HEPES pH 7.4, 150 mM NaCl, 0.05% P20), 25 °C, 30 µL/min; single cycle kinetics; 1:1 interaction model
[2] = biological target: T1, His-tagged CX3CR1; assay: SPR; Biacore T200; unpurified PURE-synthesized Strep-tag II CX3CL1 captured (~1000 RU) on StrepMAB-Immo antibody on CM5 chip; purified His-tagged CX3CR1 synthesized with micelles, in detergent, injected; HBS-P, 25 °C, 30 µL/min; single cycle kinetics; 1:1 interaction model; conditions: one partner purified

Row | Molecule | Kd [1] | Kd [2]
1 | recombinant CX3CL1 protein (from UniProt P78423 25-397) (ligand) | 27.8 nM | –
2 | B1 | – | 39.4 nM

— paper PMC6316570, “G-Protein Coupled Receptor Protein Synthesis on a Lipid Bilayer Using a Reconstituted Cell-Free Protein Synthesis System” (Life, 2018)
